Experimental data taken from paper PMC4569402.

Biological target: wild-type influenza B virus nucleoprotein (BNP), B/panama/45/1990 (influenza B virus (B/panama/45/1990))
Experiment: negative-stain electron microscopy

With “wild-type influenza B virus nucleoprotein (BNP), B/panama/45/1990 (natural protein)” the stoichiometry N was greater than 6.
